This note sets out measurements from patent publication US20160297892A1 (Novo Nordisk, published 2016).

B4: human Protein S (plasma derived) (other)
chain: ANSLLEETKQGNLERECIEELCNKEEAREVFENDPETDYFYPKYLVCLRSFQTGLFTAARQSTNAYPDLRSCVNAIPDQCSPLPCNEDGYMSCKDGKASFTCTCKPGWQGEKCEFDINECKDPSNINGGCSQICDNTPGSYHCSCKNGFVMLSNKKDCKDVDECSLKPSICGTAVCKNIPGDFECECPEGYRYNLKSKSCEDIDECSENMCAQLCVNYPGGYTCYCDGKKGFKLAQDQKSCEVVSVCLPLNLDTKYELLYLAEQFAGVVLYLKFRLPEISRFSAEFDFRTYDSEGVILYAESIDHSAWLLIALRGGKIEVQLKNEHTSKITTGGDVINNGLWNMVSVEELEHSISIKIAKEAVMDINKPGPLFKPENGLLETKVYFAGFPRKVESELIKPINPRLDGCIRSWNLMKQGASGIKEIIQEKQNKHCLVTVEKGSYYPGSGIAQFHIDYNNVSSAEGWHVNVTLNIRPSTGTGVMLALVSGNNTVPFAVSLVDSTSEKSQDILLSVENTVIYRIQALSLCSDQQSHLEFRVNRNNLELSTPLKIETISHEDLQRQLAVLDKAMKAKVATYLGGLPDVPFSATPVNAFYNGCMEVNINGVQLDLDEAISKHNDIRAHSCPSVWKKTKNS
notes: Bought plasma-derived human Protein S (Haematologic Technologies or Enzyme Research Laboratories); also called Plasma PS; free Protein S

Assay [1] concerns the target B4. The experiment in a line: SPR (Biacore T200), Fab on Protein S captured on C4BP.
Procedure: (§1) In brief, a polyclonal anti-C4BP antibody targeting the alpha chain (ab83755 from abcam) was immobilized on a CM5 Biacore sensor chip by standard amine coupling chemistry. […] The experiment was conducted in 10 mM Hepes, pH 7.4; 150 mM NaCl; 10 M CaCl₂ supplemented with 0.005% Tween20 and the chip was regenerated with glycine-HCl pH 1.7.
Assay [2] has as its target B4. Kind of assay: SPR; protein S binding to the full length antibody.
For assay [3], the target named is T1, Gla-domain deleted recombinant human Protein S (human, UniProt P07225 114-676).
T1 construct: also called hPS-dGla; desGla human Protein S
T1 sequence: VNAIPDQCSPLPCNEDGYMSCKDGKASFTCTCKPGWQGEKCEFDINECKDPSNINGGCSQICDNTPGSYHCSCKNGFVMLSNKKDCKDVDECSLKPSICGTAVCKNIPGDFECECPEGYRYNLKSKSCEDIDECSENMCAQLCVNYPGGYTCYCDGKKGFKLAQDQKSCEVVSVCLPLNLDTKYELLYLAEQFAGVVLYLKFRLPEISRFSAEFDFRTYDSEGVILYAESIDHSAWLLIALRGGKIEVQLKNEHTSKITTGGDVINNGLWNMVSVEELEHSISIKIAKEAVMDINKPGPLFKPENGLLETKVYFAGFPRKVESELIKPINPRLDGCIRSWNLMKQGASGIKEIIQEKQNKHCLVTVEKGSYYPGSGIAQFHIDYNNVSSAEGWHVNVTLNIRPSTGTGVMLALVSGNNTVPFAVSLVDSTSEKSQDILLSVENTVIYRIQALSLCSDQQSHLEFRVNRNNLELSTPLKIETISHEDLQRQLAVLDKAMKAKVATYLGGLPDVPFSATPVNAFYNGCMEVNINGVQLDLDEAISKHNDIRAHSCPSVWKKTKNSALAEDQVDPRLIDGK
Kind of assay: ELISA, recombinant antibody.

The target in assay [4] is T2, EGF domain 1 and 2 of recombinant human Protein S (human, UniProt P07225 114-200, limits assumed).
T2 construct: domain: EGF domain 1 and 2; also called hEGF1-2
T2 sequence (looked up): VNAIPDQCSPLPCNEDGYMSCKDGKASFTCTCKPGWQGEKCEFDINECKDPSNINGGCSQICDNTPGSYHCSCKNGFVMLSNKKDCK
Kind of assay: ELISA, recombinant antibody. (In general: In an ELISA, binding on a coated surface is turned into a signal by an enzyme label.)

Assay [5] concerns the target T3, EGF1-4 domains of human Protein S with C-terminal HPC4 tag (human, UniProt P07225 114-286, partial hydroxylation of Asn or Asp in the EGF domains (detected by MS)).
T3 construct: also called hEGF1-4; human Protein S EGF1-4
T3 sequence: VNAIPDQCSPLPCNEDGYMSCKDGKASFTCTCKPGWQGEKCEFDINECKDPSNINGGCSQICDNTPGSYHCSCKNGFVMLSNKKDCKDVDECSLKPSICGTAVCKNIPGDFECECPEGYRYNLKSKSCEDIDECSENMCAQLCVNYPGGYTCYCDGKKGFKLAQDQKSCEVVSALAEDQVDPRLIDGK
The experiment in a line: ELISA, recombinant antibody.

In assay [6] the target is B4. Kind of assay: ELISA, recombinant antibody.
The target of a further assay is T4, C4b-Binding Protein (UniProt P04003 49-597; P20851 18-252).
T4 construct: Bought protein; also called C4BP; C4b-BP
T4 sequence (looked up) 1: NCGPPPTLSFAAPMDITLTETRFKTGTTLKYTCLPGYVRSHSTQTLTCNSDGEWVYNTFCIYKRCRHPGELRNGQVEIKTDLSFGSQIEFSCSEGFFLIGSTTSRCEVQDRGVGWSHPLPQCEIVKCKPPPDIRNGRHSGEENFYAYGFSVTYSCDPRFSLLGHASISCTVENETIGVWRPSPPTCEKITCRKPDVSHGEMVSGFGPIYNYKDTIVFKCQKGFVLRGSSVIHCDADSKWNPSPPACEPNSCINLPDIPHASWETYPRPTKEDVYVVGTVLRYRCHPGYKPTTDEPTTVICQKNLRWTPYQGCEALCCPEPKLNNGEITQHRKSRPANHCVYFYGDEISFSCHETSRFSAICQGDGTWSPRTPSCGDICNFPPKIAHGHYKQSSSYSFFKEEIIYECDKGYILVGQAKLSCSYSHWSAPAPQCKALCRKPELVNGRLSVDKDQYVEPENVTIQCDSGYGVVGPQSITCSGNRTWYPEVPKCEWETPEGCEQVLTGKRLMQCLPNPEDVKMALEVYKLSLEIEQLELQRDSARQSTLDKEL
T4 sequence (looked up) 2: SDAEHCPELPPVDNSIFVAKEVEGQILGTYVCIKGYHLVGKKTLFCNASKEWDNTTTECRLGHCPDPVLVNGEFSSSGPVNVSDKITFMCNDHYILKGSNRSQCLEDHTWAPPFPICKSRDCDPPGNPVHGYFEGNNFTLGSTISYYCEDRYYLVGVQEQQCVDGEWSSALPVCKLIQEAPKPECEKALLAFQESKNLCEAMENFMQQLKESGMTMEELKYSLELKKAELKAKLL
The experiment in a line: SPR (Biacore T200), C4BP captured by immobilized polyclonal anti-C4BP alpha chain antibody.

Procedure for C4b-Binding Protein: as §1

B1: 0322-0000-1139 (Fab, V domains shown)
VH: QVQLQQPGAELVRPGASVKLSCKASGYTFTSYWINWVKQRPEQGLEWIGRIDPYDSETHYNQKFKDKAILTVDKSSSTAYMQLSSLTSEDSAVYYCARWGGSGYAMDYWGQGTSVTVSS
VL: QIVLSQSPAILSASPGEKVTMTCRASSSVSYMYWYQQKPGSSPKPWIYATSNLASGVPARFSGSGSGTSYSLTISRVEAEDAATYYCQQWSSIPPTFGGGTKLEIKR
notes: also called Fab 1139
In assay [1], B1 registered a dissociation constant (Kd) of 10 nM.

B2: 0322-0000-1069 (murine-human IgG4 chimer) (antibody, V domains shown)
VH: QVQLQQPGAELVRPGASVKLSCKASGYTFTSYWINWVKQRPEQGLEWIGRIDPYDSETHYNQKFKDKAILTVDKSSSTAYMQLSSLTSEDSAVYYCARWGGSGYAMDYWGQGTSVTVSS
VL: QIVLSQSPAILSASPGEKVTMTCRASSSVSYMYWYQQKPGSSPKPWIYATSNLASGVPARFSGSGSGTSYSLTISRVEAEDAATYYCQQWSSIPPTFGGGTKLEIKR
notes: Mouse variable domains on human IgG4(S241P) / human kappa constant regions
Regarding B2, binding in assay [2] was characterised by a dissociation constant (Kd) of 20 nM.

B3: M-hProtS-6F230A10 monoclonal antibody (antibody, mouse IgG1, V domains shown)
VH: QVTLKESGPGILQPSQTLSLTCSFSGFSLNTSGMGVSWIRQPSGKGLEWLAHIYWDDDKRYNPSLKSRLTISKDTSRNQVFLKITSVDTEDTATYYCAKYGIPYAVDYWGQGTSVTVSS
VL: QIVLTQSPAIMSASPGEKVTMTCSASSSVSYMYWYQQKPGSSPRLLIYDTSNLASGVPVRFSGSGSGTSYSLTISRMEAEDAATYYCQQWSSYPLTFGAGTKLELKR
As to B3, the binding result in assay [3] was “binds”; in assay [4] it was “no binding”; in assay [5], “binds”; in assay [6] it was “binds”. With B4, binding with C4b-Binding Protein was characterised by a dissociation constant (Kd) of 2 nM.

Usually Kd stands for the constant that tells how readily two partners part at equilibrium. A high value points to lower affinity.
